Test results: patent US20250340640A1 (published 2025)
Positions count from the first letter of the chain named.

T1: recombinant protein TCRVB 6-5 (human, captured on a Biotin CAP sensor chip, so presumably biotinylated; the site is not stated)
T1 construct: also called TCRVβ 6-5; TCRβ V6-5*01
T1 TCR beta: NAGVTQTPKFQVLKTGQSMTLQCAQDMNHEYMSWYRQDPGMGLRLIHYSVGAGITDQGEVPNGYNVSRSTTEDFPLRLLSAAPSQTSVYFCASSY

B1: A-H.52 (scFv)
scFv: QVQLVQSGAEVKKPGSSVKVSCKASGYSFTLGYIHWVRQAPGQGLEWMGWFFPGSGNIKYNEKFKGRVTITADTSTSTAYMELSSLRSEDTAVYYCAGSYYSYDVLDYWGQGTTVTVSSGGGGSGGGGSGGGGSGGGGSDIQMTQSPSFLSASVGDRVTITCKASQNVGINVVWHQQKPGKAPKALIYSSSHRYSGVPSRFSGSGSGTEFTLTISSLQPEDFATYFCQQFKSYPLTFGQGTKLEIK
notes: also called phage clone; monovalent scFv
B2: A-H.54 (scFv)
scFv: B1 scFv with T30H, L31N, G32W
notes: Described only as a phage clone; also called phage clone
B3: A-H.53 (scFv)
scFv: B1 scFv with T30R, G32T
notes: as for B2

Target: T1, recombinant protein TCRVB 6-5
Experiment: SPR, compared with BJM0277
Experimental: (§1) TCRVB 6-5 at 5 μg/mL was immobilized on a Biotin CAP Series S Sensor Chip to 60 RU. A-H.52 was diluted to 50 nM and then serially diluted two fold. Association was 120 seconds, dissociation was 300 seconds. This assay was run in 1×HBS-EP+ Buffer pH 7.4 and 25C. The data was fit using a 1:1 binding model. A-H.52 is a phage clones and is a monovalent scFv. A-H.52 has two mutations on CDRH1.
(§2) TCRVB 6-5 at 5 ug/mL was immobilized on a Biotin CAP Series S Sensor Chip to 60 RU. A-H.53 was diluted to 50 nM and then serially diluted two fold. Association was 120 seconds, dissociation was 300 seconds. This assay was run in 1×HBS-EP+ Buffer pH 7.4 and 25C. The data was fit using a 1:1 binding model. A-H.53 (phage clone) affinity is in the pM range (Table 16).
as §1, with “A-H.54” for “A-H.52”, “model.” for “model. A-H.52 is a phage clones and is a monovalent scFv. A-H.52 has two mutations on CDRH1.”

Row | Binder | fold greater affinity than BJM0277 [fold]
1 | B1 | 20
2 | B2 | 17
3 | B3 | 200

Target: T1, recombinant protein TCRVB 6-5
Experiment: SPR, TCRVB 6-5 captured on Biotin CAP Series S chip, 1:1 model, 25C
Experimental: as §1, §2
as §1, with “A-H.54” for “A-H.52”, “model.” for “model. A-H.52 is a phage clones and is a monovalent scFv. A-H.52 has two mutations on CDRH1.”

Row | Binder | Kd [nM]
4 | B1 | 1.76
5 | B2 | 2.22
6 | B3 | 0.165
